The values that follow come from paper PMC10786891, “Massively parallel profiling of RNA-targeting CRISPR-Cas13d”.

To fix the notation:
T1: EsCas13d, nuclease-dead (Eubacterium siraeum, UniProt B0MS50, R295A;H300A;R849A;H854A)
T1 sequence: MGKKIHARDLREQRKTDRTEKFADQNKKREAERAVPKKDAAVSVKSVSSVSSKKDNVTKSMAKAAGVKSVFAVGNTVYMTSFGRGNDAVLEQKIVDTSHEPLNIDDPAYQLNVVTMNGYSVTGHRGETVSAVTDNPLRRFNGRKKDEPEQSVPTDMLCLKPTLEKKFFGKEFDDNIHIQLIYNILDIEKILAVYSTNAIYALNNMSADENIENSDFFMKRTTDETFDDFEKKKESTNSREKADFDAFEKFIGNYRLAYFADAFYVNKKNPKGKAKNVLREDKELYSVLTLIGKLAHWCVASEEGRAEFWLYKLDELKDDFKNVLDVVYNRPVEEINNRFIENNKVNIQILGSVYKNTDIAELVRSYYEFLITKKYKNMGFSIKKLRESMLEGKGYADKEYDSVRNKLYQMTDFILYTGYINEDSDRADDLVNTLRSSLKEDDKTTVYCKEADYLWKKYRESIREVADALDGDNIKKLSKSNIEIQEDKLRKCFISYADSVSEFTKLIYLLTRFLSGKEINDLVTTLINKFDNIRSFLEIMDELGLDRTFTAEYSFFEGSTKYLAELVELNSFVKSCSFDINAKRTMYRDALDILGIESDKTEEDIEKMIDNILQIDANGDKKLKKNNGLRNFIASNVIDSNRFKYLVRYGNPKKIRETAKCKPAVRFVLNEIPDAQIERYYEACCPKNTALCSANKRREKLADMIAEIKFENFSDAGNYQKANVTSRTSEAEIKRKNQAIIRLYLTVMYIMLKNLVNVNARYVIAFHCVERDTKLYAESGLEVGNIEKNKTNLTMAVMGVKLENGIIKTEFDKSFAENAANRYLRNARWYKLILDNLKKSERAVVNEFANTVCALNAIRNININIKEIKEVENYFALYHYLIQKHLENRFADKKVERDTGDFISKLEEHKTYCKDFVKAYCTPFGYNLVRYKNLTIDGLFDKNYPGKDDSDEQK

B1: target 1 U3A,A14G (mixed)
RNA 1: CACCCGUGCAAAAAUGCAGGGGUCUAAAACUGAGCGGAUAACCUCUCUAUGG
RNA 2: GGGAAUGGAUCCACAUCUACGAAUUCGUACCAUAGAGGGGUUAUCCGCACACCGAGAUCGGAAGAGCACACGU
B2: target 1 A9C,A20U (mixed)
RNA 1: CACCCGUGCAAAAAUGCAGGGGUCUAAAACUGAGCGGAUAACCUCUCUAUGG
RNA 2: GGGAAUGGAUCCACAUCUACGAAUUCGUACCUUAGAGAGGUUCUCCGCUCACCGAGAUCGGAAGAGCACACGU
B3: target 1 insG 3' of 22,insU 3' of 18 (mixed)
RNA 1: CACCCGUGCAAAAAUGCAGGGGUCUAAAACUGAGCGGAUAACCUCUCUAUGG
RNA 2: GGGAAUGGAUCCACAUCUACGAAUUCGUACGCAUAUGAGAGGUUAUCCGCUCACCGAGAUCGGAAGAGCACACGU
B4: target 1 insG 3' of 22,insC 3' of 20 (mixed)
RNA 1: CACCCGUGCAAAAAUGCAGGGGUCUAAAACUGAGCGGAUAACCUCUCUAUGG
RNA 2: GGGAAUGGAUCCACAUCUACGAAUUCGUACGCACUAGAGAGGUUAUCCGCUCACCGAGAUCGGAAGAGCACACGU
B5: target 1 insA 3' of 4,insG 3' of 3 (mixed)
RNA 1: CACCCGUGCAAAAAUGCAGGGGUCUAAAACUGAGCGGAUAACCUCUCUAUGG
RNA 2: GGGAAUGGAUCCACAUCUACGAAUUCGUACCAUAGAGAGGUUAUCCGCAUGCACCGAGAUCGGAAGAGCACACGU
B6: target 1 U10A,U19C (mixed)
RNA 1: CACCCGUGCAAAAAUGCAGGGGUCUAAAACUGAGCGGAUAACCUCUCUAUGG
RNA 2: GGGAAUGGAUCCACAUCUACGAAUUCGUACCACAGAGAGGUAAUCCGCUCACCGAGAUCGGAAGAGCACACGU
B7: target 1 A16G,A18U (mixed)
RNA 1: CACCCGUGCAAAAAUGCAGGGGUCUAAAACUGAGCGGAUAACCUCUCUAUGG
RNA 2: GGGAAUGGAUCCACAUCUACGAAUUCGUACCAUUGGGAGGUUAUCCGCUCACCGAGAUCGGAAGAGCACACGU
B8: target 1 U3A,A9U (mixed)
RNA 1: CACCCGUGCAAAAAUGCAGGGGUCUAAAACUGAGCGGAUAACCUCUCUAUGG
RNA 2: GGGAAUGGAUCCACAUCUACGAAUUCGUACCAUAGAGAGGUUUUCCGCACACCGAGAUCGGAAGAGCACACGU
B9: target 1 del3,del13 (mixed)
RNA 1: CACCCGUGCAAAAAUGCAGGGGUCUAAAACUGAGCGGAUAACCUCUCUAUGG
RNA 2: GGGAAUGGAUCCACAUCUACGAAUUCGUACCAUAGAGAGUUAUCCGCCACCGAGAUCGGAAGAGCACACGU
B10: target 1 insU 3' of 13,insA 3' of 5 (mixed)
RNA 1: CACCCGUGCAAAAAUGCAGGGGUCUAAAACUGAGCGGAUAACCUCUCUAUGG
RNA 2: GGGAAUGGAUCCACAUCUACGAAUUCGUACCAUAGAGAGUGUUAUCCGACUCACCGAGAUCGGAAGAGCACACGU
B11: target 1 insU 3' of 13,insA 3' of 12 (mixed)
RNA 1: CACCCGUGCAAAAAUGCAGGGGUCUAAAACUGAGCGGAUAACCUCUCUAUGG
RNA 2: GGGAAUGGAUCCACAUCUACGAAUUCGUACCAUAGAGAGUGAUUAUCCGCUCACCGAGAUCGGAAGAGCACACGU
B12: target 1 C4U,C6A (mixed)
RNA 1: CACCCGUGCAAAAAUGCAGGGGUCUAAAACUGAGCGGAUAACCUCUCUAUGG
RNA 2: GGGAAUGGAUCCACAUCUACGAAUUCGUACCAUAGAGAGGUUAUCAGUUCACCGAGAUCGGAAGAGCACACGU
B13: target 1 insG 3' of 8,insC 3' of 5 (mixed)
RNA 1: CACCCGUGCAAAAAUGCAGGGGUCUAAAACUGAGCGGAUAACCUCUCUAUGG
RNA 2: GGGAAUGGAUCCACAUCUACGAAUUCGUACCAUAGAGAGGUUAUGCCGCCUCACCGAGAUCGGAAGAGCACACGU
B14: target 1 insA 3' of 22,insA 3' of 15 (mixed)
RNA 1: CACCCGUGCAAAAAUGCAGGGGUCUAAAACUGAGCGGAUAACCUCUCUAUGG
RNA 2: GGGAAUGGAUCCACAUCUACGAAUUCGUACACAUAGAGAAGGUUAUCCGCUCACCGAGAUCGGAAGAGCACACGU
B15: target 1 insU 3' of 7,insU 3' of 1 (mixed)
RNA 1: CACCCGUGCAAAAAUGCAGGGGUCUAAAACUGAGCGGAUAACCUCUCUAUGG
RNA 2: GGGAAUGGAUCCACAUCUACGAAUUCGUACCAUAGAGAGGUUAUCUCGCUCAUCCGAGAUCGGAAGAGCACACGU
B16: target 1 C7G,G12U (mixed)
RNA 1: CACCCGUGCAAAAAUGCAGGGGUCUAAAACUGAGCGGAUAACCUCUCUAUGG
RNA 2: GGGAAUGGAUCCACAUCUACGAAUUCGUACCAUAGAGAGUUUAUGCGCUCACCGAGAUCGGAAGAGCACACGU
B17: target 1 insU 3' of 5,insA 3' of 5 (mixed)
RNA 1: CACCCGUGCAAAAAUGCAGGGGUCUAAAACUGAGCGGAUAACCUCUCUAUGG
RNA 2: GGGAAUGGAUCCACAUCUACGAAUUCGUACCAUAGAGAGGUUAUCCGUACUCACCGAGAUCGGAAGAGCACACGU
B18: target 1 C7G,U11C (mixed)
RNA 1: CACCCGUGCAAAAAUGCAGGGGUCUAAAACUGAGCGGAUAACCUCUCUAUGG
RNA 2: GGGAAUGGAUCCACAUCUACGAAUUCGUACCAUAGAGAGGCUAUGCGCUCACCGAGAUCGGAAGAGCACACGU
B19: target 1 insU 3' of 14,insG 3' of 9 (mixed)
RNA 1: CACCCGUGCAAAAAUGCAGGGGUCUAAAACUGAGCGGAUAACCUCUCUAUGG
RNA 2: GGGAAUGGAUCCACAUCUACGAAUUCGUACCAUAGAGAUGGUUAGUCCGCUCACCGAGAUCGGAAGAGCACACGU
B20: target 1 U3C,A9G (mixed)
RNA 1: CACCCGUGCAAAAAUGCAGGGGUCUAAAACUGAGCGGAUAACCUCUCUAUGG
RNA 2: GGGAAUGGAUCCACAUCUACGAAUUCGUACCAUAGAGAGGUUGUCCGCCCACCGAGAUCGGAAGAGCACACGU
B21: target 1 insG 3' of 10,insG 3' of 7 (mixed)
RNA 1: CACCCGUGCAAAAAUGCAGGGGUCUAAAACUGAGCGGAUAACCUCUCUAUGG
RNA 2: GGGAAUGGAUCCACAUCUACGAAUUCGUACCAUAGAGAGGUUGAUCGCGCUCACCGAGAUCGGAAGAGCACACGU
B22: target 1 G13C,A14G (mixed)
RNA 1: CACCCGUGCAAAAAUGCAGGGGUCUAAAACUGAGCGGAUAACCUCUCUAUGG
RNA 2: GGGAAUGGAUCCACAUCUACGAAUUCGUACCAUAGAGGCGUUAUCCGCUCACCGAGAUCGGAAGAGCACACGU
B23: target 1 C7G,U19G (mixed)
RNA 1: CACCCGUGCAAAAAUGCAGGGGUCUAAAACUGAGCGGAUAACCUCUCUAUGG
RNA 2: GGGAAUGGAUCCACAUCUACGAAUUCGUACCAGAGAGAGGUUAUGCGCUCACCGAGAUCGGAAGAGCACACGU
B24: target 1 U8A,G12C (mixed)
RNA 1: CACCCGUGCAAAAAUGCAGGGGUCUAAAACUGAGCGGAUAACCUCUCUAUGG
RNA 2: GGGAAUGGAUCCACAUCUACGAAUUCGUACCAUAGAGAGCUUAACCGCUCACCGAGAUCGGAAGAGCACACGU
B25: target 1 C4G,U10G (mixed)
RNA 1: CACCCGUGCAAAAAUGCAGGGGUCUAAAACUGAGCGGAUAACCUCUCUAUGG
RNA 2: GGGAAUGGAUCCACAUCUACGAAUUCGUACCAUAGAGAGGUGAUCCGGUCACCGAGAUCGGAAGAGCACACGU
B26: target 1 G17U,A18U (mixed)
RNA 1: CACCCGUGCAAAAAUGCAGGGGUCUAAAACUGAGCGGAUAACCUCUCUAUGG
RNA 2: GGGAAUGGAUCCACAUCUACGAAUUCGUACCAUUUAGAGGUUAUCCGCUCACCGAGAUCGGAAGAGCACACGU
B27: target 1 insA 3' of 21,insA 3' of 17 (mixed)
RNA 1: CACCCGUGCAAAAAUGCAGGGGUCUAAAACUGAGCGGAUAACCUCUCUAUGG
RNA 2: GGGAAUGGAUCCACAUCUACGAAUUCGUACCAAUAGAAGAGGUUAUCCGCUCACCGAGAUCGGAAGAGCACACGU

The term Kd denotes a measure of binding affinity in units of concentration. Read a low Kd as tighter binding.

In the series the target is T1, EsCas13d, nuclease-dead. The experiment in a line: crRNA (strand 1, pre-loaded); Mg2+; 40 mM Tris-HCl pH 7.5, 150 mM NaCl, 6 mM MgCl2, 1 mM DTT, 0.1% Tween-20, 0.2 mg/ml BSA; 25 C; 10 min per concentration, then washed. The following applies: tags: His6-TwinStrep-SUMO cleaved; N-terminal SNAP kept (SNAP-Surface 488); label: 3' end held by stalled T7 RNA polymerase.
Regarding B1, the Kd is 14.3 ± 1.2 nM.
Consider B2, for which the Kd was determined as 80 ± 40 nM.
The value for B3 was 74 ± 18 nM; that for B4 was 8.4 ± 0.7 nM.
The value for B5 was 6.5 ± 0.4 nM; that for B6 was 35 ± 4 nM; that for B7 was 86 ± 13 nM.
The value for B8 was 10.8 ± 0.9 nM; that for B9 was 7.9 ± 0.4 nM.
Molecule B10 came in with a dissociation constant Kd of 15.7 ± 2.7 nM.
The value for B11 was 10.1 ± 0.7 nM.
The value for B12 was 7.52 ± 0.33 nM; that for B13 was 10.2 ± 0.4 nM; that for B14 was 7.9 ± 0.4 nM.
On to B15, for which the Kd stood at 18.4 ± 0.9 nM.
The value for B16 was 14.3 ± 1.1 nM.
To B17 belongs 13.9 ± 0.6 nM.
The value for B18 was 14.6 ± 0.6 nM; that for B19 was 28.2 ± 2.9 nM.
Turning to B20, binding was characterised by a dissociation constant (Kd) of 30.5 ± 3.2 nM.
As to B21, the dissociation constant Kd is 12.5 ± 0.6 nM. This Kd lies about 2.4-fold lower than the previous one.
The value for B22 was 31 ± 5 nM.
The value for B23 was 34 ± 10 nM.
The value for B24 was 16.5 ± 1.2 nM; that for B25 was 13.6 ± 0.5 nM; that for B26 was 29.8 ± 2.8 nM.
B27 returned a Kd of 41 ± 5 nM.
